# B1: TPR t1 (parent)
# chain: GACCAAUCUGCCCUCAGAGCUCGAGAACAUCUUCGGAUGCAGAGGAGGCAGGCUUCGGUGGCGCGAUAGCGCCAACGUCCUCAACCUCCAAUGCAUCCCACCACAUGAUGAUGCCUGAAGAGCCUUGGUUUUUUG
# Variants of: B1
# Assay: polymerase ribozyme fitness, log enrichment relative to wild type (log ratio); higher = more active; in vitro selection for triplet polymerase activity
# Method in brief: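 Both subunits of a heterodimeric triplet polymerase ribozyme were given their own mutant library, built by PCR and transcribed. Each library was annealed with a biotinylated primer, the partner subunit and triplets, incubated frozen at −7 °C, and its extended constructs gel-excised, captured on streptavidin beads and amplified by RT-PCR, all in one round done in triplicate. Fitness is the logarithm of genotype enrichment relative to wild-type enrichment, with replicates averaged by inverse-variance weighting. That logarithm is base 2, and Illumina-sequenced genotypes needed ≥10 input reads and ≥1 read per output.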
row,Variant,polymerase ribozyme fitness (log ratio)
1,C11A C85A C114A C123U,-2.71
2,A16U U59A,0.971
3,G47A C56U A105U,-2.73
4,U116C A121G U129C,-3.73
5,C20U G60U C72U C94U,-1.4
6,G61C A91G U112C G122A,-3.24
7,G60U G128U,-2.12
8,C101A C114G,-3.4
9,G42A A91G,-2.47
10,G52A C88G,-0.655
11,G44U C98A G120U,-6.27
12,A50U U59A G60C C80G C88U,-2.26
13,U33G G69A,-7.83
14,C3U U59G G113A,-1.89
15,C72U G110A G113A,-4.61
16,U30G C70G C89A A111G,-7.35
17,C12A A37U,-1.73
18,C86A U87A,-2.7
19,A24U G47A G110A C114A,-6.75
20,G19A G48U G63A U96G C101A G113U,-5.6
21,G61A C70A,-3.99
22,A29U A50G U81C C114U,-1.72
23,G47U U54C C56A C80U C124G,-1.14
24,A6C U9G G77C A105G U126A,-4.13

row,Variant,polymerase ribozyme fitness (log ratio)
1,C40A C94G G120A U129A,-3.13
2,C40G U87G,-1.6
3,C13A G39U G69U U109A,-5.33
4,G45A C85U U92C G128A,-5.92
5,A37G G52C A100C C104U,-2.8
6,G93A C115U,-1.29
7,C56U C72A G122A,-1.69
8,G35U G61U C94U C124U,-4.83
9,U9G U14C U38G G61U C72U A91U C124U,-3.69
10,C8A C12A C34U C56G G77A,-2.77
11,C72G C88A G113U G127C,-5.08
12,C3U A27U G61U,-2.61
13,C15A A18U C98U G107C G113U U125G,-6.57
14,G63A U78A A119U,-1.76
15,A2U C56U,-2.27
16,A43U G48U U54C C89U U112A,-0.663
17,C94A A118U,-0.204
18,G47U C124A,-0.524
19,A29C A50U C123U U129G,-4.5
20,G10U C22G U106A G120C,-2.7
21,A26U G60A,-3.74
22,U38G G51C,-6.44
23,G69C C114A,-2.28
24,C20U U112A G120A,-0.897

row,Variant,polymerase ribozyme fitness (log ratio)
1,A74C C102G U112C,-4.5
2,C8G C70A U92G,-5.61
3,C8U C40U A43U G77C,-1.32
4,G39U G52U G61U C102U,-4.31
5,A26G G61U,-1.54
6,A6G G63C,0.397
7,U96G,-0.532
8,G19C C22U A46C G61U C114U,-4.53
9,G23A G69A U78C G117C,-6.47
10,A37C G110C C124A U133A,-3.68
11,C82U C88A A100U U112C,0.47
12,G39U C88A,-2.37
13,C3U G42U C56G,-2.49
14,C15U A84C,-1.68
15,A29U C76A,-1.91
16,A27U G36U G60U,-4.13
17,G45C G61A,0.0573
18,G51U G52C U96C,-3.75
19,G51A C56U G63C A84U C99U A121U,-6.23
20,A43U A91U G110A G120C,-5.56
21,C49G C82U C101G,-2.53
22,G10U C88U,-0.654
23,G45C G48U G60A G61A A83C,-3.56
24,G63U A95U C124U G135A,-0.147

row,Variant,polymerase ribozyme fitness (log ratio)
1,A26U G39C G61A A83U G110A A121G,-5.04
2,C56A C94G C101A U116G,-4.75
3,G10U A118U,-0.131
4,C11G G35A C73G U81G U109A,-6.69
5,U78C A83U G117C A119U,-3.98
6,C40G C72G C82U U106A,-2.01
7,U21G C40G,-0.951
8,G63C G135U,-1.25
9,G19C G110C C114U,-5.66
10,A2U G52U C53A G63U U132C,-2.74
11,G36A A43U,-2.94
12,G47U C70A,-4.28
13,C34G C64A U116C G117U,-7.25
14,A27G G69U A74U,-2.9
15,G42A A46C G63C U106A,-3.82
16,G51A G61U G128C,-5
17,C72G C73U,-0.887
18,U7A C11G U55A,0.0928
19,C8U C62U C86U C101A,-1.69
20,C12A G120A,0.0228
21,C73G A91G,-2.69
22,U125A U131C,-0.281
23,G48U U59G C80A G120U C123A,-4.73
24,C3G G36A G39C C53U A121C,-2.59

row,Variant,polymerase ribozyme fitness (log ratio)
1,C40G A100U U133G,-4.07
2,U9A G110A A111U C115U,-6.7
3,C102U U130G,-2.52
4,C62G U96A C123U,-3.13
5,G25C C28A G48U G71U C73G G113U,-6.43
6,C4G U59A G71U C82A,-5.53
7,G44C A46U G58A G117A U130G,-3.81
8,C73G U78A,-0.494
9,G42C C79U C82G C85G G110C,-5.74
10,C20U G47A C49G C123A U125G,-2.77
11,C8A C97A,-4.07
12,C82G U106A,-0.594
13,C12G C62G A75G U87C,-3.99
14,G36C U38C G71U,-4.73
15,U59A C76U,-0.808
16,U14A C70U,-1.67
17,A37C G45C A111G,-2.91
18,A26G G57A,-2.54
19,C89A G117A A121U,-0.932
20,C72A C82G U112G G117A U126C U129G,-5.85
21,C8A A18U G45C A75U U109A,-6.43
22,U38A G69C,-2.61
23,G71A C85A,-2.44
24,G48C U106A,0.0361

row,Variant,polymerase ribozyme fitness (log ratio)
1,A2G C72U,0.0702
2,C22U C53A C72U A95G C104A,-4.54
3,A95C G120U U129A,-1.76
4,C70U C89A,-2.09
5,G39C A118C,-2.89
6,G48A G69C C123U,-0.587
7,A50C G69C C104U,-1.11
8,C11U C13G A66C C76G A118U C124A U133A,-0.556
9,C12G C73A,0.691
10,G69U U112G,0.676
11,C12U G42U C49G U96C,-2.37
12,A2C A27G A29U G77A G113A C124G,-3.05
13,A18G G19U C49U C85U G110C U112G,-5.77
14,A2G C8A G63A G110A,-3.11
15,U55A C79A U125G U133G,-4.8
16,A105C G110A C115U A119G,-6.05
17,C70U U130G,-1.24
18,G77U U78G C123A,-0.257
19,A16G A27U,-4.63
20,C12U C56U G58A G71U U112C G122A,0.796
21,C3A A50U C80U G120U,-4.64
22,C12U A37G A95G,-0.754
23,C62G U78C U96C,-3.37
24,C11G A26C G60U C97U G120U U132A,-3.92

row,Variant,polymerase ribozyme fitness (log ratio)
1,C15A A29U,-4.28
2,C40G C62U,-1.8
3,G44A A103G,-6.14
4,A27U C79G,-4.46
5,C72G U125A G128A U133A,-3.47
6,G45U G63A C79A A83G,-6.05
7,G19A A26G U112C A118U,-3.63
8,U21C C72U,-0.489
9,G48A G61A A103C C104U,-5.34
10,C3G C4A C40U C53A C70U C86A C98U U112A,-5.43
11,G48U G69C C86G G113U,-6.36
12,C11G C72G G117A,-0.843
13,U30A G39C,-5.36
14,U59A A121C,2.1
15,C62A U130C,-1.71
16,C11G C34U C86G A118U,-5.02
17,A66U C85G,-1.65
18,U9G A27G G60A A66C U78G G113U,-6.12
19,A2U C40A G61U C73A U92A C104U,-5.16
20,G10U G71U C94A,-1.09
21,A41U C82U A103U G110C G122A,-7.14
22,G36U G48A C72U,-1.42
23,C12A A43U,-2.89

# Source: the RNAGym collection of RNA variant scans (doi:10.1073/pnas.2313332121)
